Measured values taken from publication PMC11931385, “Structural and functional analysis of cancer-associated missense variants in the retinoblastoma protein pocket domain” (The Journal of Biological Chemistry, 2025).
Numbering of substitutions follows the chain as printed. Names may count otherwise. No end group written: not given here. TMR = tetramethyl rhodamine dye

B1: TMR-E2F1^TD, peptide of the E2F1 transactivation domain (peptide)
peptide: {TMR}-GEGIRDLFDCDFGDLTPLD
notes: also called E2F^TD; source: synthetic peptide, bought: GenScript
B2: TMR-E7^LxCxE, LxCxE peptide of the E7 oncoprotein from HPV (peptide)
peptide: DLYCYEQLN
modifications: also: TMR label, position not given here
notes: source: synthetic peptide, bought: GenScript

What was measured:
Test in all cases: fluorescence polarisation; 37 °C, after the 25 °C reading ramped over 7 min to 37 °C and 2 min incubation; unlabeled Rb^P against 1.5 nM TMR-E2F1^TD or 7.5 nM TMR-E7^LxCxE; 25 mM Tris pH 8.0, 200 mM NaCl, 1 mM DTT, 0.1% Tween-20; apparent Kd
Conditions in all cases: both partners purified
Rb^P T620M = molecular target: T1, Rb^P T620M (human, UniProt P06400 380-788, T620M)
T1 construct: also called variant 40
T1 sequence (looked up): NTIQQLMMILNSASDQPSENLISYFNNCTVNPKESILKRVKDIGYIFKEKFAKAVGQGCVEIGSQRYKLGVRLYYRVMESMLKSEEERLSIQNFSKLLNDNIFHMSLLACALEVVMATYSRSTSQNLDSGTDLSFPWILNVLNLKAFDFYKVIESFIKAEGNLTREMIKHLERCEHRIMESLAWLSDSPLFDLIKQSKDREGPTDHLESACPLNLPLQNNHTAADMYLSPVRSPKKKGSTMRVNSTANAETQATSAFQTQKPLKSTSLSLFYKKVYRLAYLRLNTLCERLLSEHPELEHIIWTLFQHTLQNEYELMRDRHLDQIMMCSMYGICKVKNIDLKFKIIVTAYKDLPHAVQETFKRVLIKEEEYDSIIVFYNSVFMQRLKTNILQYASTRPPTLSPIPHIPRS

Rb^P R556Q = molecular target: T2, Rb^P R556Q (human, UniProt P06400 380-788, R556Q)
T2 construct: also called variant 30
T2 sequence (looked up): T1 sequence (looked up) with R177Q, M241T

Rb^P M761L = molecular target: T3, Rb^P M761L (human, UniProt P06400 380-788, M761L)
T3 construct: also called variant 74
T3 sequence (looked up): T1 sequence (looked up) with M241T, M382L

Rb^P E675Q = molecular target: T4, Rb^P E675Q (human, UniProt P06400 380-788, E675Q)
T4 construct: also called variant 56
T4 sequence (looked up): T1 sequence (looked up) with M241T, E296Q

Rb^P S474N = molecular target: T5, Rb^P S474N (human, UniProt P06400 380-788, S474N)
T5 construct: also called variant 12
T5 sequence (looked up): T1 sequence (looked up) with S95N, M241T

Row | Binder | Kd (Rb^P T620M) | Kd (Rb^P R556Q) | Kd (Rb^P M761L) | Kd (Rb^P E675Q) | Kd (Rb^P S474N)
1 | B1 | 59 nM | 48 nM | 68 nM | 71 nM | 26 nM
2 | B2 | 15 nM | 13 nM | 5 nM | 46 nM | 13 nM
